Target: SARS-CoV-2 Omicron BA.1 receptor-binding domain (RBD) (SARS-CoV-2 Omicron BA.1, strain, biotin on the AviTag (expressed in the presence of BirA))

B1: REGN10987 VH R16G-V108D (antibody, V domains shown)
VH: QVQLVESGGGVVQPGGSLRLSCAASGFTFSNYAMYWVRQAPGKGLEWVAVISYDGSNKYYADSVKGRFTISRDNSKNTLYLQMNSLRTEDTAVYYCASGSDYGDYLLDYWGQGTLVTVSS
VL: QSALTQPASVSGSPGQSITISCTGTSSDVGGYNYVSWYQQHPGKAPKLMIYDVSKRPSGVSNRFSGSKSGNTASLTISGLQSEDEADYYCNSLTSISTWVFGGGTKLTVL
B1: binds.

Source: publication PMC10869273 (Nature Biotechnology, 2023)
